Patent US20140037648A1 (HUMABS BIOMED, published 2014)

B1: HMB3210v3 (antibody, V domains shown)
VH: EVQLVESGGGLVKPGGSLRLSCAASGFTFSSYSMNWVRQAPGKGLEWVSSISASSSYSDYADSAKGRFTISRDNAKTSLFLQMNSLRAEDTAIYFCARARATGYSSITPYFDIWGQGTLVTVSS
VL: QSVVTQPPSVSGAPGQRVTISCTGSSSNIGAGYDVHWYQQLPGTAPKLLIYDNNNRPSGVPDRFSASKSGTSASLAITGLQAEDEADYYCQSYDRSLSGVFGTGTKVTVL
notes: also called HMB3210 variant 3
B2: Palivizumab (antibody, V domains shown)
VH: QVTLRESGPALVKPTQTLTLTCTFSGFSLSTSGMSVGWIRQPPGKALEWLADIWWDDKKDYNPSLKSRLTISKDTSKNQVVLKVTNMDPADTATYYCARSMITNWYFDVWGAGTTVTVSS
VL: DIQMTQSPSTLSASVGDRVTITCKCQLSVGYMHWYQQKPGKAPKLLIYDTSKLASGVPSRFSGSGSGTEFTLTISSLQPDDFATYYCFQGSGYPFTFGGGTKLEIK

Assays:
[1] = molecular target: F protein of PVM strain 15 (PVM (strain 15)); assay: cell-based or functional assay
[2] = molecular target: F protein of BRSV strain RB94 (BRSV (strain RB94)); assay: cell-based or functional assay
[3] = molecular target: T1, stabilized form of the full-length pre-fusion RSV F protein (RSV); assay: surface plasmon resonance
T1 construct: also called pre-fusion F protein; RSV F pre-fusion recombinant protein

[4] = molecular target: T2, F protein of RSV strain A2 (A, 1961 Australia; A/A2/61) (RSV (strain A2), UniProt P03420 26-574); assay: cell-based or functional assay
[5] = molecular target: T2, F protein of RSV strain A2 (A, 1961 …); assay: cell-based or functional assay; remark: listed apart in the source
[6] = molecular target: F protein of RSV 18537 (B, Washington District of Columbia US, 1962; B/18537/62) (RSV (strain 18537), UniProt P13843 26-574); assay: cell-based or functional assay
[7] = molecular target: F protein of RSV WV/14617/85 (B, Huntington West Virginia, 1985; B/14617/85) (RSV (strain WV/14617/85)); assay: cell-based or functional assay
[8] = molecular target: F protein of RSV 9320 (B, Massachusetts US, 1977; B/9320/77) (RSV (strain 9320)); assay: cell-based or functional assay

Row | Binder | IC50, neutralization of PVM strain 15 [1] | IC50, neutralization of BRSV strain RB94 [2] | Kd [3] | IC50 (ng/ml), microneutralization [4] | Neutralization IC50 [5] | Neutralization IC50 [6] | Neutralization IC50 [7] | Neutralization IC50 [8]
1 | B1 | 0.1 µg/mL | 0.01 µg/mL | 0.1 nM | – | – | – | – | –
2 | B2 | – | – | – | 524 ng/mL | 0.617 µg/mL | 0.143 µg/mL | 0.129 µg/mL | 0.069 µg/mL
